Results taken from the nanobody polyreactivity screen of Harvey et al. (2022).

Assay: yeast display, Sf9 membrane polyspecificity reagent, FACS + sequencing; frameworks hold sequencing errors
Procedure, shortened: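 Sorting gates, low and high (top ~1%), were placed on anti-HA fluorescence to track expression and on streptavidin fluorescence to track reagent binding. A clone's polyreactivity label is taken from the gate it came out of. The reagent was 10% biotinylated, detergent-solubilized Sf9 membrane, applied for 1 hour at 4 °C to galactose-induced yeast display cells.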

Sequence | polyreactivity (PSR sort gate)
QVQLVESGGGLVQAGGSLRLSCAASGSIFTYYAMGWYRQAPGKEREFVAAINRSGGSTYYADSVKGRFTISRDNAKYTVYLQMNSLKPEDTAVYYCAARRGSGALRYNYWGQGTQVTVSS | high polyreactivity
QVQLVESGGGLVQAGGSLRLTCAASGSTFISYAMGWYRPAPGKERELVAAISRRGDSTYYADSVKGRFTISRDNAKYTVYLQMKSLKPEDTAVYYCAADSYPAYLGFVGFDYWRQGTQVTVSS | low polyreactivity
QVQLVESGGGLVQAGGSLRLSCAATGSTFAHNSMGWYRQAPGKESQFVAAISARGGMTYYADSVKGRFTISRDYAKNTVYLQMNSLKPEDTAVYYCAAVFGDYWSSQWSYAYGYWGQGTQVTVSS | high polyreactivity
QVQLVESGGGLVQAGGSLRLICAASGSTFLGYAMGWYRQAPGKERELVAAISSGGGTYADSVKGRFTISRDNAKNSVYLQMNSLKPEDTAVYYCNADYSTPYRMDYWGQGTQVTVSS | low polyreactivity
QVQLVESVGGLVQAGGSLRLSCAASGFIIVEYDMGWYRQAPGKEREFVAAINFSGGSTYYADSVKGRFTISRDNAKNTVYLQMNSLKPEDNAVYYCAADVVRYYYTYYYWGQGTHVTVSS | low polyreactivity
QVHLVESGGGLVQAGGSLRLSCAASGIPLYFYAMGWYRQAPGKERELVAAISRGGRTYYADSVKGRFTISRDNAKYTVYLQMNSLKPEDTAVYYCAARYTSEYSAFDYWGQGTQVTVSS | low polyreactivity
QVQLVESGGGLVQAGGSLRLSCAASGSIFYPYAMGCYRQAPGKERELVAAITSSGGSTYYADSVKGRFTISRDNAKNTVYLQMNSLKPEDTAVYYCNAKGPYTAIYYKPFLGSTRFEYWGQGTQVTVSS | high polyreactivity
QVQLVESGGGLVQAGGSLPLSCAASGSTFLAYAMGWYRQAPGKERELVAAITWNSGSSTFYADSVKGRFTISRDNAKNTVYLQMNSLKPEDTAVYYCNADVPSPAYYGDGTPYREDNYWGQGTQVTVSS | low polyreactivity
QDQLVESGGGLVQAGGSLRLSCAASGRTFTRNAMGWYRQAPGKERELVAAISISGGRPYYADSVKGRFTISRDNAKNTVYLQMNSLKPEDTAVYYWAKVTTSKYDYDYWGQGTQVTVSS | high polyreactivity
QVQLVESGGGLVQAGGSHRLSSAASGTTFYGNAMGWYRQAPGKERELVAAISQGGGRTYYADSVKGRFTISRDIAKNTVYLQMISLKPEDTAVYYCAADVWWYRLDFDYWGQGTQVTVSS | high polyreactivity
QVQLVESGGGLVQAGGSLRLSCAASGFIFRGNTMGWYRQAPGKERELVAAISASGGSTYYADSVKGRFTISRDNAKNTVYLQMNSLKPEDTAVYYCNVAVIYRSRPYWYGMDYWGQGTQVTVSS | high polyreactivity
QVQLVESGGGLVQAGGSLRLSCASSGTLYRYAMGWYIQATGKERELVAAISSNGGSTYYADSVKGRFTISRDNEKNTVYLQMNSLKPEDTAVYYCNALSRRFPLYGFWGQGTQVTVSS | high polyreactivity
QVQLVESGGGLVQAGGSLRLSCAASGSTLARYAMGWYRQAPGKERELVAAISWIGGSTYYADSVKGRFTISRDNAKNTVYLQMNSLKPEDTAVYFCAKDTYPWYIRNRYDYWGQGSQVTVSS | high polyreactivity
QVQLVESGGRLVEAGGSLRLSCAASGRTIPAYALGWYRQAPGKERELVAGISYRGGSTYYADSVKGRFTISRDKAKNTVYLPMNSLKPEDTAVYYCARVYSRNKGVYWGQGTQVPVSS | low polyreactivity
QVQLVESGGGLVQAGGSLRLSCAASGRILYYYAMGWYRQAPGKERELVAAITSGGSTYADSVKGRFTISRDNAKNTVYLQMNSLKPEDTAVYYCNARPVYGSRFYSAVRMEYWGQGTQVTVSS | low polyreactivity
QVQLVESGGGLVQAGGSLRLSCAASGINIRYYAMGWYRQAPGKERELVADITTGGTTYYADSVKGRFTISRDNAKNTVYLQMNSLKPEDTAVYYCAAYYFPTYSKTYIYPFDYWGQGTQVTVSS | low polyreactivity

Sequence | polyreactivity (PSR sort gate)
QVQLVESGGGLVQAGGSLRLSCAASGLIFRYYAMGWYRQAPGKERELVAAIRRGGSTYYADSVKGRFTISRDNAKNTVYLQMNSLKPEDTAVYYCAADSYYWRYEYDYWGQGTQVTVSS | high polyreactivity
QVQLVESGGGLVQAGGSLRLSCAASGIIFSKNAMGWYRQAPGKERELVATINRSGGSTYADSVKGRFTISRDNAKNTVYLQMNSLKPEDTAVYYCAKRASPFWRGYDSWGQGTQVTVSS | low polyreactivity
QVQLVESGGGLVQAGGSLRLICAASGFTFSYYAMGWYRQAPGKESELVAGITTGGGTNYADSVKGRFTISRDNAKNTVYLQMNCLKPEDTAVYYCNAVGSHWVSYSSPVRFDFWGQGTQVTVSS | low polyreactivity
QVQLVESGGGLVQAGGSLRLSCAASGRIFKTNAMGWYRQAPGKERELVAGINSSDGSTYYADSVKGRFTISRDIEKNTVYLQMNSLKPEDTAVYYCAAVRYYWGQGTQVTVSS | low polyreactivity
QVQLVESGGGLVQAGGSLRLSCAASGSIFAANAMGWYRQAPGKERELVADITRGDGTNYADSVKGRFTISRDNAKNTVYLQMNSLKPEDTAVYYCAAEPSQRYPWSGYDYWGQGTQVTVSS | low polyreactivity
QVQLVDSGGAIVQAGGSLRLSCAASGRTYHRNSKGWYRQAPGKERELVAAITGDGRTNYADSVKGRFTISRDNAKNTVFLPINSLKPEDTAVYYCAATFGFFYYHYDYWGQGTQVTVSS | low polyreactivity
QVQLVESGGGLVQAGGSLSLSCAASGFTFYYYAMGLYRQAPGKERELVAAISWSGGSTYYADSVKGRFTISRDIAKNSVYLQMNCLKPEYTAVYYCNAVGYTAYDYWGQGTQVTVSS | high polyreactivity
QVQLVESGGGLVQAGGSLRLSCAASGRTFGPYVMGGDRQAPGKERELVAGITSGGSTNYADSVKGRFTISRDNAKNTVYRQMNSLKPEDTAVYYCNADYLIYFGLYEYWGHGTQVTVSS | low polyreactivity
QVQHVESRGGLVQAGGSLRLSCAASGRIFPRYAMGWYRQAPGKERELVAAISWSGGSTYYADSVKGRFTISRDNAKNTVYLQMNSLKPEDTAVYYCAARGRLRYSGSIIYYWGQGTQVTVSS | high polyreactivity
QVQLVESGGGLVQAGGSLRLSCAASGSIFGSNAMGWYRPAPGKERELVAAITNTGRTNYADSVKGRFTISRDNAKNTVYLQMNSLKPEDTAVYYCYTDGYEFTHFVGGWYQIIDYDYWGQGTQVTVSS | low polyreactivity
QVQLEESGGGLVQAGGSLRLSCAASGRIFDVNAMGWYRQAPGKERELVPRITSDGGTYYADSVKGRFTISRDNAKNTVYLQMNSLKPEDTAVYYCNAPYWFSPGYGGFEFGYDYWGQGTQVTVSS | low polyreactivity
QVQLVESGVGLVQAGGSLRLSCAASGSIFQDNAMGWYRQAPGKERELVAAISSGDSTYYADSVKGRFTISRDNAKNTVYLQMNSLKPEDTAVYYCAKVPSRWSRQDKAQFDYWGQGTQVTVSS | low polyreactivity
QVQLVESGGGLVQAGGSLRLSCAASGSIFSYNAMGGYRQAPGKERELVAGITSGASTNYADSVKGRFTISRDNAKNTVYLQMNSLKPEDTAVYYCNADDIFRPRDDLYDYWGQGTQVTVSS | low polyreactivity
QVQIVESGGGLVQAGGSLRISCAASGFTFRYYVMGWYRQAPGKEREFVAAISRSGGITYADSVKGRFTISRDNAKNTVYLQMNSLKPEDTAVYYCNAKSRTGYGRGDYWGQGTQVTVSS | high polyreactivity
QVQLVESGGGLVQAGGSLRLSCAASGSTFSGNAMGWYRQAPGKERELVAAITSSGGSTYYADSVKGRFTISRDNAKNTVYLQMNSLKPEDTAVYYCAAKSRRTRRSYYWGQGTQVTVSS | high polyreactivity
